Results from the supplement of paper PMC10065799, “High-throughput profiling of sequence recognition by tyrosine kinases and SH2 domains using bacterial peptide display” (eLife, 2023).

These sequences were tested against c-Src SH2 (assay: SH2 binding enrichment of the phosphorylated peptide, bacterial display (enrichment ratio); higher = better substrate or ligand; peptides without Tyr show the background).
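Throughout, for SH2 binding enrichment of the phosphorylated peptide, bacterial display: peptide library displayed on the E. coli surface as eCPX fusions, selected cells deep-sequenced, score is each peptide's frequency after selection divided by its frequency in the input.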
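Throughout, for phosphorylation enrichment, bacterial display: 11-residue human phosphosite peptides and single-mutation variants displayed on the E. coli surface, counted by deep sequencing, each peptide's frequency after selection divided by its frequency in the unselected input library; frequency after pTyr selection over input frequency; kinase dosed for 20-30% of maximal phosphorylation in three min.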

Point of comparison: PTYENYANSTQ [SLC12A3_Y70_H69N], SH2 binding enrichment 2.96. Against it:
- VPFARYLAMNK [HARS1_Y138] — lower, 0.576
- STEEQYRICQV [EFHC1_Y115_R118C] — lower, 0.367
- KFVVVYFREID [IL17RB_Y447_YF] — lower, 1.43
- AVDMTYDGHPV [FLNB_Y1020_V1018M] — lower, 0.461
- NGLVACKDGKL [PMM2_Y76_Y76C] — lower, 0.541
- FTDGQYWIRGR [ACSF3_Y466_K462T] — lower, 0.358
- MFVKSYTIHFS [F5_Y2153_YF] — lower, 0.494
- EGNEQYEGYCV [GRIA3_Y451_R450Q] — lower, 1.23
- VSAPEYGPKLK [TBC1D14_Y46_L41V] — lower, 0.497
- VNFQPYRKHKF [TEX37_Y28_D24N_YF] — lower, 0.454
- VKKKLYEEIDQ [CYP17A1_Y329] — higher, 8.78
- SFPREYGSQEG [RBM10_Y48_YF] — lower, 0.467
- KSVEEYANCHL [TF_Y593_P589S] — lower, 1.14
- ALHRPYGCDVE [ABL2_Y80] — lower, 0.582
- TQNAVYSAANF [DDX5_Y535_G533A_YF] — lower, 0.631
- SPYMLYQYLKQ [RPAP3_Y567_D564Y] — lower, 1.11
- CASQLCPRHKH [DCTN4_Y263_Y263C] — lower, 1.43
- TWEKPYECVQC [ZNF24_Y335_G331W] — higher, 4.54
- SVVVPNEPPEV [TP53_Y220_Y220N] — lower, 0.538
- FSNPAYFVLEG [INPPL1_Y986_N982S_YF] — lower, 1.85
- GLRYGYGVLGG [KRTAP20-2_Y15] — lower, 0.723
- QDGYSYPSRQM [LDLR_Y847] — higher, 6.19
- WHFTFYNELRV [ACTC1_Y93_H90Y_YF] — lower, 0.535
- QEGPEYWDRNT [HLA-B_Y83] — lower, 0.377
- VQVAFYTVMMN [SPATA17_Y84_M86V_YF] — lower, 0.632
- YCVDCYKNFVA [FHL1_Y213] — lower, 1.02
- FCRHNYGVGES [HLA-DRB1_Y112_V115G_YF] — lower, 0.738
- KRLYAYKMLMA [TMC2_Y209_Q205R] — lower, 1.84

Each sequence was assayed against SHP2-C SH2 in the same assay as above.

Point of comparison: STEEQYRICQV [EFHC1_Y115_R118C], SH2 binding enrichment 0.52. Against it:
- PTYENYANSTQ [SLC12A3_Y70_H69N] — higher, 0.728
- VPFARYLAMNK [HARS1_Y138] — higher, 0.561
- KFVVVYFREID [IL17RB_Y447_YF] — higher, 2.08
- AVDMTYDGHPV [FLNB_Y1020_V1018M] — higher, 0.662
- NGLVACKDGKL [PMM2_Y76_Y76C] — higher, 0.893
- FTDGQYWIRGR [ACSF3_Y466_K462T] — lower, 0.489
- MFVKSYTIHFS [F5_Y2153_YF] — higher, 0.753
- EGNEQYEGYCV [GRIA3_Y451_R450Q] — higher, 0.768
- VSAPEYGPKLK [TBC1D14_Y46_L41V] — higher, 0.667
- VNFQPYRKHKF [TEX37_Y28_D24N_YF] — higher, 0.528
- VKKKLYEEIDQ [CYP17A1_Y329] — lower, 0.412
- SFPREYGSQEG [RBM10_Y48_YF] — higher, 0.681
- KSVEEYANCHL [TF_Y593_P589S] — higher, 0.782
- ALHRPYGCDVE [ABL2_Y80] — higher, 0.72
- TQNAVYSAANF [DDX5_Y535_G533A_YF] — higher, 0.704
- SPYMLYQYLKQ [RPAP3_Y567_D564Y] — higher, 3.05
- CASQLCPRHKH [DCTN4_Y263_Y263C] — higher, 1.2
- TWEKPYECVQC [ZNF24_Y335_G331W] — higher, 0.731
- SVVVPNEPPEV [TP53_Y220_Y220N] — higher, 0.783
- FSNPAYFVLEG [INPPL1_Y986_N982S_YF] — higher, 0.973
- GLRYGYGVLGG [KRTAP20-2_Y15] — higher, 0.769
- QDGYSYPSRQM [LDLR_Y847] — higher, 0.732
- WHFTFYNELRV [ACTC1_Y93_H90Y_YF] — lower, 0.483
- QEGPEYWDRNT [HLA-B_Y83] — higher, 0.711
- VQVAFYTVMMN [SPATA17_Y84_M86V_YF] — higher, 0.69
- YCVDCYKNFVA [FHL1_Y213] — higher, 0.838
- FCRHNYGVGES [HLA-DRB1_Y112_V115G_YF] — higher, 0.827
- KRLYAYKMLMA [TMC2_Y209_Q205R] — higher, 1.68

Each sequence was assayed against Grb2 SH2 (UniProt P62993) in the same assay as above.
Grb2 SH2, sequence (P62993 whole entry, looked up): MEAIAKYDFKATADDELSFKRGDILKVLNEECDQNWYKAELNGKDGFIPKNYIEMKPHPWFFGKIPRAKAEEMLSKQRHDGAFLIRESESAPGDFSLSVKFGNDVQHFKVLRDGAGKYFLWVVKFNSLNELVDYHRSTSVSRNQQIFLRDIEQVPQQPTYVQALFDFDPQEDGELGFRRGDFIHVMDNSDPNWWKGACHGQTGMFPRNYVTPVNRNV

Point of comparison: QDGYSYPSRQM [LDLR_Y847], SH2 binding enrichment 0.857. Against it:
- PTYENYANSTQ [SLC12A3_Y70_H69N] — higher, 19.9
- VPFARYLAMNK [HARS1_Y138] — lower, 0.739
- STEEQYRICQV [EFHC1_Y115_R118C] — lower, 0.695
- KFVVVYFREID [IL17RB_Y447_YF] — higher, 1.96
- AVDMTYDGHPV [FLNB_Y1020_V1018M] — higher, 0.877
- NGLVACKDGKL [PMM2_Y76_Y76C] — higher, 0.969
- FTDGQYWIRGR [ACSF3_Y466_K462T] — lower, 0.648
- MFVKSYTIHFS [F5_Y2153_YF] — lower, 0.742
- EGNEQYEGYCV [GRIA3_Y451_R450Q] — higher, 1.01
- VSAPEYGPKLK [TBC1D14_Y46_L41V] — higher, 0.876
- VNFQPYRKHKF [TEX37_Y28_D24N_YF] — lower, 0.693
- VKKKLYEEIDQ [CYP17A1_Y329] — lower, 0.758
- SFPREYGSQEG [RBM10_Y48_YF] — higher, 0.9
- KSVEEYANCHL [TF_Y593_P589S] — higher, 1.14
- ALHRPYGCDVE [ABL2_Y80] — higher, 1.01
- TQNAVYSAANF [DDX5_Y535_G533A_YF] — higher, 0.958
- SPYMLYQYLKQ [RPAP3_Y567_D564Y] — higher, 1.52
- CASQLCPRHKH [DCTN4_Y263_Y263C] — higher, 1.19
- TWEKPYECVQC [ZNF24_Y335_G331W] — higher, 1.08
- SVVVPNEPPEV [TP53_Y220_Y220N] — lower, 0.825
- FSNPAYFVLEG [INPPL1_Y986_N982S_YF] — higher, 0.928
- GLRYGYGVLGG [KRTAP20-2_Y15] — higher, 0.933
- WHFTFYNELRV [ACTC1_Y93_H90Y_YF] — lower, 0.782
- QEGPEYWDRNT [HLA-B_Y83] — lower, 0.856
- VQVAFYTVMMN [SPATA17_Y84_M86V_YF] — lower, 0.815
- YCVDCYKNFVA [FHL1_Y213] — higher, 1.19
- FCRHNYGVGES [HLA-DRB1_Y112_V115G_YF] — higher, 1.02
- KRLYAYKMLMA [TMC2_Y209_Q205R] — higher, 1.83

What follows are sequences tested against FGFR1 (UniProt P11362) (assay: phosphorylation enrichment, bacterial display (enrichment ratio); higher = better substrate or ligand; peptides without Tyr show the background).
FGFR1, sequence (P11362 whole entry, looked up): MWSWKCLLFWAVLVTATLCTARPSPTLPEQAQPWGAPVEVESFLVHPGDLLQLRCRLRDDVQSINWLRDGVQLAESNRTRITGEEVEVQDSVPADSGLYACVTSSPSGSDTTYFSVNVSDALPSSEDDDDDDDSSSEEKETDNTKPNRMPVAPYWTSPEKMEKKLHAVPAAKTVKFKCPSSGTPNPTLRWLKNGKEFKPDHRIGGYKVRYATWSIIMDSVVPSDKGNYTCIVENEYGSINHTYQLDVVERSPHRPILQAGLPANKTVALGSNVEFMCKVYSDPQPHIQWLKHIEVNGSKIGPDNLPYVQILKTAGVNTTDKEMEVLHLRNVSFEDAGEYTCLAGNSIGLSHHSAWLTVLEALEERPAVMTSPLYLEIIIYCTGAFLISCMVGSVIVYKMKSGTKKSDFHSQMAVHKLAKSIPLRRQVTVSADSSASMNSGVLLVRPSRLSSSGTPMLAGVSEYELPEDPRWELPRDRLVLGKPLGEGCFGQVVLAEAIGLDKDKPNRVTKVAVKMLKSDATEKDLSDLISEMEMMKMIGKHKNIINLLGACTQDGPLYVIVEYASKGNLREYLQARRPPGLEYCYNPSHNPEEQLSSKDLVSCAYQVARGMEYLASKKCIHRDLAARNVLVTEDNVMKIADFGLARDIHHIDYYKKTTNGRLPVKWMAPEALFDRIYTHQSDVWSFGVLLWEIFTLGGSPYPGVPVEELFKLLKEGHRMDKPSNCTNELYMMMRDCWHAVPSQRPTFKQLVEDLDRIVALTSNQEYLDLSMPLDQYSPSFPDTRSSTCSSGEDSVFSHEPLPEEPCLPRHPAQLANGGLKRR

Point of comparison: TWEKPYECVQC [ZNF24_Y335_G331W], phosphorylation enrichment 0.516. Against it:
- PTYENYANSTQ [SLC12A3_Y70_H69N] — higher, 0.593
- VPFARYLAMNK [HARS1_Y138] — lower, 0.388
- STEEQYRICQV [EFHC1_Y115_R118C] — higher, 0.599
- KFVVVYFREID [IL17RB_Y447_YF] — lower, 0.49
- AVDMTYDGHPV [FLNB_Y1020_V1018M] — higher, 0.576
- NGLVACKDGKL [PMM2_Y76_Y76C] — lower, 0.392
- FTDGQYWIRGR [ACSF3_Y466_K462T] — lower, 0.425
- MFVKSYTIHFS [F5_Y2153_YF] — lower, 0.49
- EGNEQYEGYCV [GRIA3_Y451_R450Q] — higher, 0.557
- VSAPEYGPKLK [TBC1D14_Y46_L41V] — lower, 0.476
- VNFQPYRKHKF [TEX37_Y28_D24N_YF] — lower, 0.365
- VKKKLYEEIDQ [CYP17A1_Y329] — lower, 0.444
- SFPREYGSQEG [RBM10_Y48_YF] — lower, 0.491
- KSVEEYANCHL [TF_Y593_P589S] — lower, 0.475
- ALHRPYGCDVE [ABL2_Y80] — lower, 0.412
- TQNAVYSAANF [DDX5_Y535_G533A_YF] — higher, 0.519
- SPYMLYQYLKQ [RPAP3_Y567_D564Y] — higher, 5.62
- CASQLCPRHKH [DCTN4_Y263_Y263C] — lower, 0.33
- SVVVPNEPPEV [TP53_Y220_Y220N] — higher, 0.63
- FSNPAYFVLEG [INPPL1_Y986_N982S_YF] — higher, 6.43
- GLRYGYGVLGG [KRTAP20-2_Y15] — lower, 0.447
- QDGYSYPSRQM [LDLR_Y847] — higher, 0.88
- WHFTFYNELRV [ACTC1_Y93_H90Y_YF] — higher, 0.542
- QEGPEYWDRNT [HLA-B_Y83] — higher, 1.03
- VQVAFYTVMMN [SPATA17_Y84_M86V_YF] — higher, 0.643
- YCVDCYKNFVA [FHL1_Y213] — higher, 0.572
- FCRHNYGVGES [HLA-DRB1_Y112_V115G_YF] — lower, 0.387
- KRLYAYKMLMA [TMC2_Y209_Q205R] — lower, 0.453
